Measurements taken from patent US20170258835A1.

Biological target: PD1-Z CLEAR
Experiment: flow cytometry, T cells 18 h after co-electroporation of PD1-Z RNA and bi-specific antibody RNA, stained with anti-mouse IgG Fab PE and anti-PD1 APC; same quadrant in the controls: EP16 PD1-Z alone 2.42, EP20 No RNA 0.086

Sequence of PD1-Z CLEAR (chain, as listed by the source limits assumed): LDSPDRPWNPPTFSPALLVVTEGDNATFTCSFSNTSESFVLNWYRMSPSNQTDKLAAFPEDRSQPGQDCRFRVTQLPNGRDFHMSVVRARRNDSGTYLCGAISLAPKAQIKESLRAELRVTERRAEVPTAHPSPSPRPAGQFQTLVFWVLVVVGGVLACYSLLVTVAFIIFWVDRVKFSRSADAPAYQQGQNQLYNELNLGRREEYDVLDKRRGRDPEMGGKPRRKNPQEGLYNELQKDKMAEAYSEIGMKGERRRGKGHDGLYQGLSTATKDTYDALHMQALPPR

percent of cells PD1+ mIgG Fab+ (upper right quadrant)	Binder
57.1	4A11-4D5-4 (bispecific antibody, part only; not given: anti-ErbB2 scFv 4D5-4 and linker, not shown: another chain or arm of the molecule; small tags and cut ends) scFv: DIQMTQSPSSLSASVGDRVSITCRASQGISSWLAWYQQKPEKAPKSLIYAASNLRSGVPSRFSGSGSGTDFTLTISSLQPEDFATYYCQQYYSYPRTFGQGTKVEIKGGGGSGGGGSGGGGSQLQLQESGPGLVKPSETLSLTCTVSGGSLSRSSFFWGWIRQPPGKGLEWIGSIYYSGSTYYNPSLKSRVTISVDTSKNQFSLKLSSVTAADTAVYYCVRDYDILTGDEDYWGQGTLVTVSS
35.6	4A11-4D5-3 (bispecific antibody, part only; not given: anti-ErbB2 scFv 4D5-3 and linker, not shown: another chain or arm of the molecule; small tags and cut ends) scFv: DIQMTQSPSSLSASVGDRVSITCRASQGISSWLAWYQQKPEKAPKSLIYAASNLRSGVPSRFSGSGSGTDFTLTISSLQPEDFATYYCQQYYSYPRTFGQGTKVEIKGGGGSGGGGSGGGGSQLQLQESGPGLVKPSETLSLTCTVSGGSLSRSSFFWGWIRQPPGKGLEWIGSIYYSGSTYYNPSLKSRVTISVDTSKNQFSLKLSSVTAADTAVYYCVRDYDILTGDEDYWGQGTLVTVSS
